Data from paper PMC8299219 (Cell, 2021).

Molecular target: SARS-CoV-2 S ectodomain trimer, prefusion-stabilized, 2P variant (Wrapp et al., 2020) (SARS-CoV-2, Wuhan-Hu-1, UniProt P0DTC2, stabilised)

| Binder | binding result |
| --- | --- |
| C83B5 (antibody, V domains shown) VH: EVQLVQSGAEVKKPGESLRISCKGSGYSFTSYWISWVRQMPGKGLEWMGRIDPSDSYTNYSPSFQGHVTISADKSISTAYLQWSSLKASDTAMYYCARQNYYDSSGHPDAFDIWGQGTMVTVSS VL: not shown | binds |
| C81E3 (antibody, V domains shown) VH: QVQLVESGGGVVQPGRSLRLSCAASGFTFSSYAMHWVRQAPGKGLEWVAVISYDGSNKYYADSVKGRFTISRDNSKNTLYLQMNSLRAEDTAVYYCARVSSMDVLRYFDPLDVWGNGTTVTVSS VL: SYELTQPPSVSVSPGQTARITCSGDALPKQYAYWYQQKPGQAPVLVIYKDSERPSGIPERFSGSSSGTTVTLTISGVQAEDEADYYCQSADSSGTYHVVFGGGTKLTVL | binds |
| C81B2 (antibody, V domains shown) VH: QVQLVQSGAEVKKPGASVKVSCKVSGYTLIELSMHWVRQAPGKGLEWMGGFDPEDGETIYAQKFQGRVTMTEDTSTDTAYMELSSLRSEDTAVYYCATGPSIAVRGWFDPWGQGTLVTVSS VL: QSVLTQPPSVSAAPGQKVTISCSGSSSNIGNNYVSWYQQLPGTAPKLLIYENNKRPSGIPDRFSGSKSGTSATLGITGLQTGDEADYYCGTWDSSLSAGGVFGGGTKLTVL | binds |
| C81C6 (antibody, V domains shown) VH: QVQLVQSGAEVKKPGASVKVSCKVSGYTLTELSMHWVRQAPGKGLEWMGGFDPEDGETIYAQKFQGRVTVTEDTSTDTAYMELSSLRSEDTAVYYCATSPAIAATGWLDPWGQGTLVTVSS VL: QSALTQPASVSGSPGQSITISCTGTSSDVGSYNLVSWYQQHPGKAPKLMIYEGNKRPSGVSNRFSGSKSGNTASLTISGLQAEDEADYYCCSYAGSSTHWVFGGGTKLTVL | binds |
| C81G10 (antibody, V domains shown) VH: QVQLVQSGAEVKKPGASVKVSCKVSGYTLTELSIHWVRQAPGKGLEWMGGFDPEDGETIYAQKFQGRVTMTEDTSTDTAYMELSSLRSEDTAVYYCATTTVLAAASWFDPWGQGTLVTVSS VL: QSALTQPASVSGSPGQSITISCTGTNSDVGSYNLVSWYQQHPGKAPKLMIYEGSKRPSGVSNRFSGSKSGNTASLTISGLQAEDEADYYCCSYAGSGTVVFGGGTKLTVL | binds |
| C81H2 (antibody, V domains shown) VH: QVQLVQSGSELKKPGASVKVSCKASGYTFTSYAMNWVRQAPGQGLEWMGWINTNTGNPTYAQDFTGRFVFSLDTSVSTAYLQISSLKAEDTAMYYCARGSMITFGGILEPVLQFDYWGQGTLVTVSS VL: not shown | binds |
| C81H5 (antibody, V domains shown) VH: QVQLVQSGAEVRKPGASVKVSCKVSEYTLTELSIHWVRQAPGKGLEWMGGFDPEDGETIYAQKFQGRVTMTEDTSTDTAYMELSSLRSEDTAVYYCATAPAYCPGGVCPRGWFDPWGQGTLVTVSS VL: QSALTQPRSVSGSPGQSVTISCTGTSSDVGGYNYVSWYQQHPGKAPKLMIYDVSKRPSGVPDRFSGSKSGNTASLTISGLQAEDEADYYCCSYAGSYTYVFGTGTKVTVL | binds |
| C12A8 (antibody, V domains shown) VH: QVQLVQSGAEVKKPGASVKVSCKVSGYTLTELSMHWVRQAPGKGLEWMGGFDPEDGETIYAQKFQGRVTMTEDTSTDTAYMELSSLRSEDTAVYYCATVSWPNYYDGTLYYFDYWGQGTLVTVSS VL: DIQMTQSPSSLSASVGDRVTITCRASQGIRNDLGWYQQKPGKAPKRLIYAASSLQSGVPSRFRGSGSGTEFTLTISSLQPEDFATYYCLQHYSYPFTFGPGTKVDIK | binds |
| C63D4 (antibody, V domains shown) VH: EVQLVESGGGLVQPGGSLRLSCAASGFTFSTYEMNWVRQAPGKGLEWVSYISSSGSTISYADSVKGRFTISRDNAKNSLYLQMNSLRAEDTAVYYCARDSPHYDYIWGSYRLRGAFDIWGQGTMVTVSS VL: QSALTQPPSASGSPGQSVTISCTGTSSDVGGYNYVSWYQQHPGKAPKLMIYEVSKRPSGVPDRFSGSKSGNTASLTVSGLQAEDEADYYCSSYTGSNTLYVFGTGTKVTVL | binds |
| C83A8 (antibody, V domains shown) VH: QVQLVQSGAEVKKPGSSVKISCKASGGTFSSNAISWVRQAPGQGLEWMGGIIPILTTTNYAERLQGRVTITADESTSTAYMELSSLRSEDTAVYYCASQGRKSCITVFGVVDLLCYSNGMDVWGQGTTVTVSS VL: QSALTQPASVSGSPGQSITISCTGTSSDVGGYKYVSWYQHHPGKAPKLMIYDVSNRPSGVSNRFSGSKSGNTASLTISGLQAEDEAEYYCSSFTTSSTLVVFGGGTKLTVL | binds |
| C12D8 (antibody, V domains shown) VH: EVQLVESGGGLVQPGGSLRLSCAASGFTFSSYWMSWVRQAPGKGLEWVANIKQDGSEKYYVDSVKGRFTISRDNAKNSLYLQMNSLRAEDTAVYYCARDDGLREPFDYWGQGTLVTVSS VL: not shown | binds |
| G32L6 (antibody, V domains shown) VH: QVQLVQSGAEVKKPGASVKVSCKVSGYTLTELSMHWVRQAPGKGLEWMGGFDPEDGETIYAQKFQGRVTMTEDTSTDTAYMELSTLRSEDTAVYYCATAPAVAGTFENYYYYYGLDVWGQGTTVTVSS VL: not shown | binds |
| C41N3 (antibody, V domains shown) VH: EVQLVESGGGLVQPGRSLRLSCAASGFTFDDYAMHWVRQAPGKGLEWVSGISWQSGSIGYADSVKGRFTISRDNAKNSLYLQMNSLRAEDTALYYCAKDPGYDSSGYYYDYWGQGALVTVSS VL: not shown | binds |
| C41C3 (antibody, V domains shown) VH: QVQLQESGPGLVKPSETLSLTCTVSGGSISSYYWSWIRQPPGKGLEWIGYIYYSGSTNYNPSLKSRVTISVDTSKNQFSLKLSSVTAADTAVYYCARAAEYYDFWSGYYRNWFDPWGQGTLVTVSS VL: not shown | binds |
| G32A12 (antibody, V domains shown) VH: QVQLVQSGAEVKKPGASVKVSCKASGYTFTSYYMHWVRQAPGQGLEWMGIINPSGGSTSYAQKFQGRVTMTRDTSTSTVYMELSSLRSEDTAVYYCARDPTMTTVTTLDDYYYYYGMDVWGQGTTVTVSS VL: not shown | binds |
| C53E4 (antibody, V domains shown) VH: QVQLVQSGAEVKKPGASVKVSCKASGYTYTSYGISWVRQAPGRGLEWMGWISAYNGNTNYAQKLQGRVTMTTDTSTSTAYMELRSLRSDDTAVYYCARDQGLWYYYDSSGFALDYWGQGTLVTVSS VL: EIVLTQSPATLSLSPGERATLSCRASQSVSSYLAWYQQKPGQAPRLLIYDASNRATGIPARFSGSGSGTDFTLTISSLEPEDFAVYYCQQRSNWPRYTFGQGTKLEIK | binds |
| C53E6 (antibody, V domains shown) VH: EVQLVESGGGLVKPGGSLKLSCAASGFTFSSYSMNWVRQAPGKGLEWVSSISSSSSYIYYADSVKGRFTISRDNAKNSLYLQMNSLRAEDTAVYYCARASYDFWSGQDHWFDPWGQGTLVTVSS VL: EIVLTQSPATLSLSPGERATLSCRASQSVSSYLAWYQQKPGQAPRLLIYDASNRATGIPAKFSGSGSGTDFTLTISSLEPEDFAVYYCQQRSNWPPITFGQGTRLEIK | binds |
| C81D7 (antibody, V domains shown) VH: not shown VL: SYELTQPPSVSVAPGKTARITCGGNNIGSKSVHWYQQKPGQAPVLVVYDDSDRPSGIPERFSGSNSGNTATLTISRVEAGDEADYYCQVWDSSSDSWVFGGGTKLTVL | binds |
| C81E4 (antibody, V domains shown) VH: QVQLVESGGGVVQPGRSLRLSCEASGFTFSNYAMHWVRQAPGKGLEWVAVISYDGSNKYYADSVKGRFTISRDNSKNTLYLQMNSLRAEDTAVYYCASCGITMVQGAHPDAFDIWGQGTMVTVSS VL: SYELTQPPSVSVAPGKTARITCGGNNIGTKSVHWYQQKPGQAPVLVVYDDSDRPSGIPERFSGSNSGNTATLTISRVEAGDEADYYCQVWDRSSDHVLFGGGTKLTVL | binds |
| G32L2 (antibody, V domains shown) VH: QVQLVESGGGVVQPGTSLRLSCAASGFTFSNYDIHWVRQAPGKGLEWVAVISYDGSNKYYADSVKGRFTISRDNSKNTLYLQMNSLRAEDTAVYYCAKDLVLRYFDWLFDGPDYWGQGTLVTVSS VL: SYELTQPPSVSVSPGQTARITCSGDALPKKYAYWYQQKSGQAPVLVIYEDSKRPSGIPERFSGSSSGTMATLTISGAQVEDEADYYCYSTDSSGNHGVFGGGTKLTVL | binds |
| C81H7 (antibody, V domains shown) VH: QVQLVESGGGVVQPGRSLRLSCAASGFTFSSYGMHWVRQAPGKGLEWVAVIWYDGSNKYYAESVKGRFTISRDNSKNTLYLQMNSLRAEDTAVYYCARPPSVVRHDAFDIWGQGTMVTVSS VL: SYELTQPPSVSVSPGQTARITCSGDALPKKYAYWYQQKSGQAPVLVIYEDSKRPSGIPERFSGSSSGTMATLTISGAQVEDEADYYCYSTDSSGNHGVFGGGTKLTVL | binds |
| C93D6 (antibody, V domains shown) VH: EVQLVESGGGLVKPGGSLRLSCAASGFTFSSYSMNWVRQAPGKGLEWVSSISSSSSYIYYADSVKGRFTISRDNAKNSLYLQMNSLRAEDTAVYYCASDLMEDYDFLSGSATSPFDYWGQGTLVTVSS VL: not shown | binds |
| C81G1 (antibody, V domains shown) VH: QVQLVQSGAEVKKPGSSVKVSCKASGGTFSSYGITWVRQAPGQGLEWMGGIIPIFGTANYAQKFQGRVTITADESTSTAYMDLSSLRSEDTAVYYCAILGDDYNDVDYWGQGTLVTVSS VL: not shown | binds |
| C18D5 (antibody, V domains shown) VH: QVQLVQSGAEVKTPGASVKVSCKASGFTFTNYDLNWVRQAPGQGLEWMGWMNPKSGDTRSAQRFQGRVTMTRDTSISTAYMEMNTLRSEDTAVYYCARGRGDYSDDDFPALYLWGQGTLVTVSS VL: not shown | binds |
| C83B6 (antibody, V domains shown) VH: EVQLVESGGGLVKPGGSLRLSCAASGFTFSSYSMNWVRQAPGKGLEWVSYISSSSSTIYYADSVKGRFTISRDNAKNSLYLQMNSLRDEDTAVYYCARDRGGYGPYYYGMDVWGQGTTVTVSS VL: not shown | binds |
